For orientation: Kd means the equilibrium constant for the complex coming apart. What is called IC50 is the concentration that gives 50% inhibition.

Results on 16 sequences are retold here after patent US20090018093.

For data set [1], the system named is Immunoglobulin E (IgE) (Homo sapiens), P01854-1. The experiment in a line: filter.
Data set [2] has as its target T1, Immunoglobulin E (IgE) (Macaca fascicularis) (UniProt A0A7N9DC98).
T1 sequence: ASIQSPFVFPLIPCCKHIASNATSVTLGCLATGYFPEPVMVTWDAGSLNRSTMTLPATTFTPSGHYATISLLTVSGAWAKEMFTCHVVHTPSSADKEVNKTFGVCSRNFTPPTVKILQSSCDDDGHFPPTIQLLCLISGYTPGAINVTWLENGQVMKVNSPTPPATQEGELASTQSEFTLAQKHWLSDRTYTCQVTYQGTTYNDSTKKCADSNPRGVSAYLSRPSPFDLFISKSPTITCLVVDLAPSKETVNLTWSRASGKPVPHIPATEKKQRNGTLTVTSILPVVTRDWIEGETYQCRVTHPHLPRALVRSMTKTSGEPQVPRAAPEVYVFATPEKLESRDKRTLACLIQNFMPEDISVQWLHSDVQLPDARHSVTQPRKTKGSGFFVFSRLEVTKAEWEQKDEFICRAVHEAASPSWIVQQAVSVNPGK
The experiment in a line: inhibition.

Data set [3] relates to Immunoglobulin E (IgE) (Homo sapiens), P01854-1. As to the kind of experiment: FP_none. Conditions: 2'-OMe G2 and all C,U, rest 2'-deoxy, 3' idT [2'-OMe at 2,3,4,5,11,12,13,15,22,23, 3'-idT at 24].
Data set [4] has the same test system. As to the kind of experiment: inhibition.
The target of data set [5] is T2, Immunoglobulin E (IgE), cynomolgus (Macaca fascicularis) (UniProt A0A7N9DC98).
T2 sequence: T1 sequence
As to the kind of experiment: inhibition. Conditions: 2'-F C,U; no inhibition of monkey IgE-FceR1 up to 1 uM.

Data set [6] has as its system Immunoglobulin E (IgE) (Homo sapiens), P01854-1. The experiment in a line: FP. Conditions: 2'-F C and U; nitrocellulose dot blot filter, not fluorescence; biphasic, KD2 12.5 nM; 1xSHMCK + 0.1 mg/mL tRNA, RT.
[7] abbreviates: 3' idT, no inhibition of monkey IgE:FceR1a-Fc up to 250 nM.
Where [8] appears, read: 2'-OMe C,U, deoxy A,G, FACS, 15 nM IgE.

Chain of Immunoglobulin E (IgE) (Homo sapiens), P01854-1 (P01854 other isoform, or with tags, fused parts or gaps): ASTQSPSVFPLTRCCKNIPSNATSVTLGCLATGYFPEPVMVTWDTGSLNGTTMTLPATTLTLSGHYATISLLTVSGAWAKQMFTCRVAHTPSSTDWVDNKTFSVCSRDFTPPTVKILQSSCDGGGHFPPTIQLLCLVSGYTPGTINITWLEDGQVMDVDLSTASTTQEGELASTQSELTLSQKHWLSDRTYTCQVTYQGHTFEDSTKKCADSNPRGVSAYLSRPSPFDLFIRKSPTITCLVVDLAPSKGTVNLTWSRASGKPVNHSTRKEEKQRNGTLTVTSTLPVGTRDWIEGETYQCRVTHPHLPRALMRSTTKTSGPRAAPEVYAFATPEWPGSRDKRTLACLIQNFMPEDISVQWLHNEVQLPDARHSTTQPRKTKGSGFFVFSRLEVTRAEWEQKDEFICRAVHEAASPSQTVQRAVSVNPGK

Take AGCCUGGGGACCCAUGGGGGGCU [ARC445]: the Kd in data set [1] (dRmY: 2'-deoxy A,G, 2'-OMe C,U, dPBS Ca/Mg + 0.1 mg/mL BSA, RT, 22 nM in PBS with tRNA + ssDNA (Table 10)) was 3 nM. In data set [2] (dRmY: 2'-deoxy A,G, 2'-OMe C,U, ELISA, monkey IgE:FceR1a-Fc, human IC50 63 nM in same assay), this sequence displayed an IC50 of 161 nM.

As to AGCCUGGGGACCCAUGGGGGGCU [ARC1251], the Kd in data set [3] stood at 7 nM.

AGCCUGGGGACCCAUGGGGGGCU [ARC1666]: the Kd in data set [1] (mAmGmCmCmUdGmGdG-s-dGmAmCmCmCmAmU-s-dI-s-mGdI-s-dGdI-s-dGmCmU-3T [2'-OMe 1-5,7,10-15,17,22,23, dI16,dI18,dI20 (inosine, parent base G), phosphorothioate 8/9,15/16,16/17,18/19,20/21 (N linkage letters left out), 3' inverted dT24], dPBS Ca/Mg + BSA, RT, 0.06 nM in Table 23) is 0.035 nM. For the same sequence, the IC50 in data set [2] (mAmGmCmCmUdGmGdG-s-dGmAmCmCmCmAmU-s-dI-s-mGdI-s-dGdI-s-dGmCmU-3T [2'-OMe 1-5,7,10-15,17,22,23, dI16,dI18,dI20 (inosine, parent base G), phosphorothioate 8/9,15/16,16/17,18/19,20/21 (N linkage letters left out), 3' inverted dT24], ELISA, monkey IgE:FceR1a-Fc, human IC50 5 nM in same assay) turned out to be 8 nM.

With “GGAGAUCCGAGGGUGGGCAAUAGGCUCACAAGGGUUU [rRfY minimer SEQ 93]”, the Kd in data set [1] (2'-F C and U, KD2 17.1 nM, 1xSHMCK + tRNA) worked out at 0.65 nM. For the same sequence, the IC50 was 12.5 nM in data set [4] (2'-F C,U, FACS, 15 nM IgE) and over 1000 nM in data set [5].

With “GGCGGCAGCTTTATCCGTACCTCCCAGTGGGCTGCTCC [DNA clone SEQ 149 with 3' idT]”, the IC50 in data set [2] (setting [7]) was over 250 nM.

As to “GGGAAAAGCGAAUCAUACACAAGACGUCGCCAGAUUGAGUGUCGUGGUU [rRfY minimer SEQ 90]”, the Kd in data set [1] (2'-F C and U, KD2 28.2 nM, 1xSHMCK + 0.1 mg/mL tRNA) was 0.33 nM. In data set [5], the IC50 was over 1000 nM.

For the sequence “GGGAAAAGCGAAUCAUACACAAGACGUCGCCAGAUUGAGUGUCGUGGUUCGGGUUGAGGCGGAAGCUCCGCCAGAGACCAACCGAGAA [rRfY clone SEQ 11]”, the Kd in data set [6] was found to be 0.144 nM. For the same sequence, the IC50 in data set [4] (2'-F C,U, ELISA FceR1-Fc, FACS 14 nM (Table 25)) is 2.6 nM.

For “GGGAAAAGCGAAUCAUACACAAGAGUGCCGAGGCAUUGCUUGGUAUGGUUCCGGUCUUGUCGGGGCUCCGCCAGAGACCAACCGAGAA [rRfY clone SEQ 19]”, the Kd in data set [1] (2'-F C and U, biphasic, KD2 17.4 nM, 1xSHMCK + tRNA, RT) was found to be 0.095 nM. The sequence further returned an IC50 in data set [4] (2'-F C,U, ELISA FceR1-Fc, FACS 9.9 nM (Table 25)) of 7.4 nM.

For the sequence “GGGAAAAGCGAAUCAUACACAAGAUCCGAGGGUGGGCAAUAGGCUCACAAGGGUUUCGCGUGAUGCUCCGCCAGAGACCAACCGAGAA [rRfY clone SEQ 18]”, the Kd in data set [1] (2'-F C and U, biphasic, KD2 27.3 nM, 1xSHMCK + tRNA, RT) was found to be 1.14 nM. In data set [4] (2'-F C,U, ELISA FceR1-Fc, FACS 35 nM (Table 25)), this sequence returned an IC50 of 51.3 nM.

As to “GGGGCTACTTTATCCGTACCTCCCAGTGGGTAGCCCC [ARC476]”, the Kd in data set [1] was 0.2 nM. In data set [4] (FACS, 15 nM IgE), this sequence had an IC50 of 17.4 nM.

On to “GGGGCTACTTTATCCGTCCCTCCTAGTGGGTAGCCCC [ARC475 with 3' idT]”, for which the concentration for half-maximal inhibition (IC50) in data set [2] (setting [7]) is over 250 nM.

“GGGGCTACTTTATCCGTCCCTCCTAGTGGGTAGCCCC [ARC475]” had a Kd in data set [1] of 0.5 nM. In addition, in data set [4] (FACS, 15 nM IgE), the IC50 stood at 17.1 nM.

As to “GGGGCTACTTTATCCGTTCCTCCTAGTGGGTAGCCCC [ARC480]”, the Kd in data set [1] was found to be 0.2 nM. In data set [4] (FACS, 15 nM IgE), this sequence had an IC50 of 9.7 nM.

In data set [1], “GGGGCTACTTTATCCGTTCCTCTTAGTGGGTAGCCCC [ARC479]” showed a Kd of 0.4 nM. This sequence also showed an IC50 in data set [4] (FACS, 15 nM IgE) of 14.4 nM.

In data set [1] (dRmY: 2'-deoxy A,G, 2'-OMe C,U, 1xPBS, BSA, 1 mg/mL tRNA, ssDNA, 25 C), GUUCUGGGGACCCAUGGGGGAAC [ARC442] showed a Kd of 174 nM. The sequence further displayed an IC50 in data set [4] (setting [8]) of 58.9 nM.

In the case of UAGCCUGGGGACCCAUGGGGGGCUA [ARC446], the Kd in data set [1] (dRmY: 2'-deoxy A,G, 2'-OMe C,U, 1xPBS, BSA, tRNA, ssDNA, 25 C) stood at 43 nM. Moreover, the IC50 in data set [4] (setting [8]) amounted to 33.8 nM.
